Test results from the supplement of paper PMC9170038.

Key:
MS2 coat protein [1] = assay: apparent KD of MS2 coat protein, switch OFF state (with FMN for OFF switches, without FMN for ON switches); designed switch direction (-1 OFF switch, 1 ON switch): -1; higher = weaker reporter binding; details: FMN input: 0 or 200 uM; Eterna round: R93 (includes R88 designs)
In short: (§1)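 On-chip transcription from Illumina sequencing clusters produced the designed RNA switches. These were titrated with SNAP-549-labelled MS2 coat protein (twofold steps, 0.7 or 1.5 nM to 3 µM) in 100 mM Tris-HCl pH 7.5, 80 mM KCl, 4 mM MgCl2, with or without constant ligand. The apparent KD given is the per-design median of normalised cluster binding-curve fits.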

MS2 coat protein [2] = assay: apparent KD of MS2 coat protein, switch ON state; designed switch direction (-1 OFF switch, 1 ON switch): -1; higher = weaker reporter binding; details: FMN input: 0 or 200 uM; Eterna round: R93 (includes R88 designs)
In short: as §1

Sequence	apparent KD of MS2 coat protein (MS2 coat protein [1]) [nM]	apparent KD of MS2 coat protein (MS2 coat protein [2]) [nM]
AAAGGAUCAGGAUAUGUGUGGAAAAAGUGUGUCCAAAAAAAACAUGAGGAUCACCCAUGUAGAAGGGAUCCAAA [Mod 4 of Normal (20/19) by Nando, Round 1]	260	222
AAAGGGUCAGGAUAUGUACGAACAACAAAACAAAUAACGGUACAGAAGGGACAUGAGGAUCACCCAUGUAUAAA [May 73]	64.1	51.9
AAAAAACAUGAGGAUCACCCAUGUGAGGAUAUGAAAAAACAAAAAAAAAAGUAAUCAAUCAGAAGGCACAACAA [JR_Exc--1_Sub1210]	28.9	27.4
AUAAGAGCAGGAUAUACGUAUAUGAUGCCAGGACCGCGUCCACAUGAGGAUCACCCAUGUAGAAGGGCUUGAAA [Disoleve]	19.2	35.7
AAAUUGUCAGGAUAUCGUAUAACAUGGAAAACAUGGAGAUACGAGAAGGGACAUGAGGAUCACCCAUGUAAAAC [May 95]	87.4	51.6
AAAAUGGCAGGAUAUACUAAAAUAAAAAACUAUGCUAAAACACAUGAGGAUCACCCAUGUAGAAGGGCCAAAAA [AJ 5]	18.8	26.2
AGCUAGUGAGGAUAUACGAACAAGUAAAAGGACUGUAAGGGACAUGAGGAUCACCCAUGUAGAAGGCACUAGCA [Diamond 60]	92.7	29.6
AAAAAACAUGAGGAUCACCCAUGUAAGGAUAUCGAAAAGAAAAGAAAAGAAAGAAGAACGAGAAGGUACAAGAA [Neferirkare Kakai]	16	16.6
AAGACUACAGGAUAUACAUGAGGAUCACCCAUGUAACUGACGGGUAGAUGACGGAGAAGUAGAAGGGUAGUCAA [Ruby 37]	40.6	67.2
AAUAAGUGAGGAUAUACGAAAUAAAUAAAUAAAUAAAUAAAGUAGAAGGCACAUGAGGAUCACCCAUGUAAUAA [My Mind Is Going Dave]	29.7	34.4
AACAGGUCAGGAUAUGUGUAAAAAAUAAAAAAAAUAUAAACACAGAAGGGACAUGAGGAUCACCCAUGUUAACA [May 26]	35.7	31.5
AGCAAGUCAGGAUAUGCGAAGUCAGGACACACACUGACGAAGCAGAAGGGACAUGAGGAUCACCCAUGUAAGCA [JR_Exclusion4_Sub6]	39.3	42.5
AGGAGACAUGAGGAUCACCCAUGUUAGGAUAUGAACGAAAAUAAAUAAAAAUAAAAGUUCAGAAGGGACGAAAA [66%, Wbt, 8]	44.7	43.3
AAGUAUCGAGGAUAUACAUAGAUACAGAUUCAUGUAGAACUACAUGAGGAUCACCCAUGUAGAAGGCGAUAAUA [AJ 33]	79.3	31.8
AAAUGCUGAGGAUAUACAUGAGGAUCACCCAUGUGAAAUAAAAAAUGUGUGUAAGCGUGUAGAAGGCAGCAUAA [Exclusion 3.12 (FMN+ favored)]	25.8	57.1
GGUUGGCGAGGAUAUACAUGAGGAUCACCCAUGUGAGAGAUAAAAGUGAGAAAGAAAAGUAGAAGGCGCUGACG [salish99-ex3-45]	65	29.2
AACUGACAUGAGGAUCACCCAUGUCAGGAUAUGACAUCGAGAAAAAAAAAAAUCGUUGUCAGAAGGGACAUGAA [Design 78: Sub-opt T]	13.6	12.4
AACAUGUCAGGAUAUGUACGAAAAAAUAAAAAAAUAAAAGUACAGAAGGGACAUGAGGAUCACCCAUGUCAGGG [EX4 393: Minimal 6]	20	100

Sequence	apparent KD of MS2 coat protein (MS2 coat protein [1]) [nM]	apparent KD of MS2 coat protein (MS2 coat protein [2]) [nM]
AAAAAACAUGAGGAUCACCCAUGUCAGGAUAUCGUGCAGAAAAAAAAAAAAAACUGCACGAGAAGGGACAUGAA [Mod of jnicol]	94.9	42
CAAAGGUGAGGAUAUACAGGAAUAUGACGAAAGUCAUAAAAACAUGAGGAUCACCCAUGUAGAAGGCACCACAA [E2 64% 3]	57.3	37.4
GGUUGGCGAGGAUAUACAUGAGGAUCACCCAUGUGAGAGAAAAAAGUGAGAAAGAAAAGUAGAAGGCGCUGACU [salish99-ex3-04]	262	54.5
ACCGAACAUGAGGAUCACCCAUGUGAGGAUAUAGACGCAAAUUAAACGCGUAACAAAACUAGAAGGCACUGGGC [Veais]	15.3	27.6
AGUGAGUCAGGAUAUGCGUGAAGAAUAAAAGAAAUAACAACGCAGAAGGGACAUGAGGAUCACCCAUGUACACA [May 56]	20.7	23.5
AAAAGACAUGAGGAUCACCCAUGUGAGGAUAUGACGUAAAGAAAGAAAGAAGAAAUCGUCAGAAGGCACACCUA [Mat - Exclusion 1 - Eli mod - D68]	63.5	31.6
CGCAAGUCAGGAUAUUCGACAGGUAAAUCAGUAGAUCAGAAGAAGAAGGGACAUGAGGAUCACCCAUGUAAGUA [JR_Exc004_Sub405]	24.3	41.1
AAAAAACAUGAGGAUCACCCAUGUGAGGAUAUGCAAAACCCAUAUAAAAAGAGAAAAAGCAGAAGGCACAAAAA [wbt round 1 mod]	40.4	25.8
AGUUGGCGAGGAUAUACAUGAGGAUCACCCAUGUGAAAUCGAGAAAAAAUAGGGAAAAGUAGAAGGCGCAGACA [Ruby 63]	24.1	20.6
AUAAAUCGAGGAUAUACAUGAGGAUCACCCAUGUAAAUAAAUAAAUAAAACUCCACAAGUAGAAGGCGAAAUAA [JR_Exc003_Sub020]	20.8	23.8
AAAAAAGCAGGAUAUACGAACAUGUCAAAAGACGUGAAGGGACAUGAGGAUCACCCAUGUAGAAGGGUUAAGAA [JL Stem Breaker 16]	36.8	179
AAAACUCGAGGAUAUGCAAAAUGAUUGCGAAAGCAAUCAAAACAUGAGGAUCACCCAUGUAGAAGGCGAGAAAA [Mat - Mod of Eli]	13	23.5
AAGAACACAGGAUAUACAUGAGGAUCACCCAUGUAAAAGAAAGAGGGAAAAGAGAAAAGUAGAAGGGUGAAGAA [Hugronaphor]	31.4	33.1
AAGAAUUCAGGAUAUACAAGGAAGAAAGAAAAGAAAAGAAAACAUGAGGAUCACCCAUGUAGAAGGGAAUAGAA [EteRNA is fun!]	26.6	40
AAUAAACAUGAGGAUCACCCAUGUAAGGAUAUGCGAACAAUAAGAAGACAAUAAUAAAGCAGAAGGUACAAGAG [Ex1 sub 1]	50	27
AAAAAGUGAGGAUAUACGUUGAAGAGAAAACACAUCCAGGCGUAGAAGGCACAUGAGGAUCACCCAUGUACAAA [Ex4 Malc#7]	19.8	23.4
AAAAAGCGAGGAUAUACAUGAGGAUCACCCAUGUCAAAAGGUAAGACCGCAGAAAAAAGUAGAAGGCGCAAAAA [Exclusion3-01]	172	68.1
